The results in this text go back to publication PMC8818652, “Msi2‐mediated MiR7a‐1 processing repression promotes myogenesis”.

For data set [1], the target named is HuR (ELAV-like protein 1);Msi2 (Musashi 2) (mouse?;mouse?, UniProt P70372;Q920Q6 1-326;1-346, |). Description: EMSA; HuR and Msi2 together, strong cooperative binding; 100 mM Tris-HCl pH 7.5, 7.5 mM KCl, 25 mM MgCl2, 375 mM NaCl, 12.5% glycerol, 5 mM DTT, 30 C 30 min (as printed, possibly 5x buffer); 6% native PAGE at 4 C. The settings on record: protein: recombinant;recombinant; tags:

Data set [2] deals with HuR (ELAV-like protein 1) (UniProt P70372 1-326). As to the kind of experiment: EMSA; HuR alone; 100 mM Tris-HCl pH 7.5, 7.5 mM KCl, 25 mM MgCl2, 375 mM NaCl, 12.5% glycerol, 5 mM DTT, 30 C 30 min (as printed, possibly 5x buffer); 6% native PAGE at 4 C. The conditions noted are these: protein: recombinant. Background: Mobility shift assays separate free from complexed probe on a gel.
Chain of HuR (ELAV-like protein 1) (P70372 whole entry): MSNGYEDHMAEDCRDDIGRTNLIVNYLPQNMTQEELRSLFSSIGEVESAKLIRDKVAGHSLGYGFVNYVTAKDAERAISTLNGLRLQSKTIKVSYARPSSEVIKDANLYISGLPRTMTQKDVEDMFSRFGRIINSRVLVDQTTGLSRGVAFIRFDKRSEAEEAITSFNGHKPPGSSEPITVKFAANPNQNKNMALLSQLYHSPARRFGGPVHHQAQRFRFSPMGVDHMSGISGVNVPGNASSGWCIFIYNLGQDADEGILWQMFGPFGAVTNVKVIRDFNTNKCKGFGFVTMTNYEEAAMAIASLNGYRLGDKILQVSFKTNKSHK

Chain of HuR (ELAV-like protein 1);Msi2 (Musashi 2) (P70372 whole entry, chain 1 of 2): as the sequence (P70372 whole entry) above
Chain of HuR (ELAV-like protein 1);Msi2 (Musashi 2) (Q920Q6 whole entry, chain 2 of 2): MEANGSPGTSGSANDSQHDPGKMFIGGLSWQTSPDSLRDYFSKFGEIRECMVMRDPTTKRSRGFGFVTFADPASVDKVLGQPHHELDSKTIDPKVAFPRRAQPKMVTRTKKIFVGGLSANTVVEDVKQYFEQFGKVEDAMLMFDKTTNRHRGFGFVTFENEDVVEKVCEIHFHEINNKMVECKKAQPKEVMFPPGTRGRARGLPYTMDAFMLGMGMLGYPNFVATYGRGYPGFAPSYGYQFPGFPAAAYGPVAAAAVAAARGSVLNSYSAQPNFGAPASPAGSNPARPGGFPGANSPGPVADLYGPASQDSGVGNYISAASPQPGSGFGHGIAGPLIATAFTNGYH

On to UAAUUCGUACUUUUUUUUUCUUUUCUUUUAUAGUGUGAA (ssRNA) [WT Flanking probe], for which the binding result in data set [1] and in data set [2] was “binds” each time.
